Columns and labels:
[1] = molecular target: sGFPori (sGFP 1–10 OPT), recombinant; assay: fluorescence polarisation; steady-state fluorescence anisotropy of ReAsH-labelled sFP at 20, 10, 5, 2.5, 1.25 and 0.5 µM, after equilibrium at RT, triplicate; apparent equilibrium constant of dimer formation (monomers to dimer)
[2] = molecular target: sGFPori (sGFP 1–10 OPT), recombinant; assay: SEC; size-exclusion HPLC of purified, non-complemented sFPs at high concentration; sGFP2 (ReAsH-labelled) at 20 µM, concentrations of the other sFPs not stated
[3] = molecular target: M3 peptide (complementary 11th β-strand peptide of split GFP); assay: other fluorescence titration; fluorescence complementation kinetics, pseudo-first order: 0.1 µM M3 peptide with 0.1–30 µM total sFP, TN buffer pH 8.0 with 1 mM DTT, 5 mM EDTA, 0.05% CHAPS, 25 °C, 14 hours; kobs1 against the concentration of sFP monomers fitted by a line; binding irreversible

- Ka [1]: 320000 M⁻¹
- stoichiometry N [2]: 2
- kon [3]: 70 M⁻¹ s⁻¹
Substance: sGFPori (sGFP 1–10 OPT), recombinant (domain or fragment)

Reference: paper PMC5871787
